Positions count from the first letter of the chain named.

In assay [1] the target is T1, human SLC34A2 (human, UniProt O95436 1-690).
T1 sequence (looked up): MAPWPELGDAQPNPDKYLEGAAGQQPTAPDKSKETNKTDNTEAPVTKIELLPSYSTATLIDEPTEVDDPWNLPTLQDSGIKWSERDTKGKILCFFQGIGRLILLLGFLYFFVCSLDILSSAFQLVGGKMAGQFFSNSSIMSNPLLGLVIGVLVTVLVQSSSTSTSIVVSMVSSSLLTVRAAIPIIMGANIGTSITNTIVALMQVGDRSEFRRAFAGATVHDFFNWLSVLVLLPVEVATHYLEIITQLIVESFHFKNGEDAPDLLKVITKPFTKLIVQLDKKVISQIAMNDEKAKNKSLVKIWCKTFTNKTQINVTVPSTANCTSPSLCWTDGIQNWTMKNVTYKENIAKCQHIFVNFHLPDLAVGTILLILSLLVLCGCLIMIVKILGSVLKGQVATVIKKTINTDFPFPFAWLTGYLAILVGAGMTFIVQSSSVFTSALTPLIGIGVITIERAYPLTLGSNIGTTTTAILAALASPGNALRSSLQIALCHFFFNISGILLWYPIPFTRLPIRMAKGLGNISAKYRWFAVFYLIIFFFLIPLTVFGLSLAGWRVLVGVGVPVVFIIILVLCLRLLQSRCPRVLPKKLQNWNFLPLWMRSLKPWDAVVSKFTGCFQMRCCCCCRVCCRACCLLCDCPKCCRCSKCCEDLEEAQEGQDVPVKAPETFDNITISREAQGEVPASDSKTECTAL
Description: cell-based or functional assay.

The target in assay [2] is T1, human SLC34A2. Description: FACS, MDAH2774 cells. For orientation: A flow cytometer gives signals particle by particle.
The target in assay [3] is T1, human SLC34A2. Description: FACS, OVCAR3 cells. How it is done: The binding of these humanized antibodies to OVCAR3 cells was evaluated as described above, and the results are shown in FIG. 12A-D and Tables 16A-D.
The target in assay [4] is T1, human SLC34A2. Description: FACS, HEK293/human SLC34A2 cells.
Assay [5] concerns the target T1, human SLC34A2. Description: FACS, OVCAR3 cells. This is another data set of the same source.
In the next assay the target is T2, Rhesus SLC34A2 (Rhesus, UniProt F7HDA3 1-690).
T2 construct: whole, on cells
T2 sequence: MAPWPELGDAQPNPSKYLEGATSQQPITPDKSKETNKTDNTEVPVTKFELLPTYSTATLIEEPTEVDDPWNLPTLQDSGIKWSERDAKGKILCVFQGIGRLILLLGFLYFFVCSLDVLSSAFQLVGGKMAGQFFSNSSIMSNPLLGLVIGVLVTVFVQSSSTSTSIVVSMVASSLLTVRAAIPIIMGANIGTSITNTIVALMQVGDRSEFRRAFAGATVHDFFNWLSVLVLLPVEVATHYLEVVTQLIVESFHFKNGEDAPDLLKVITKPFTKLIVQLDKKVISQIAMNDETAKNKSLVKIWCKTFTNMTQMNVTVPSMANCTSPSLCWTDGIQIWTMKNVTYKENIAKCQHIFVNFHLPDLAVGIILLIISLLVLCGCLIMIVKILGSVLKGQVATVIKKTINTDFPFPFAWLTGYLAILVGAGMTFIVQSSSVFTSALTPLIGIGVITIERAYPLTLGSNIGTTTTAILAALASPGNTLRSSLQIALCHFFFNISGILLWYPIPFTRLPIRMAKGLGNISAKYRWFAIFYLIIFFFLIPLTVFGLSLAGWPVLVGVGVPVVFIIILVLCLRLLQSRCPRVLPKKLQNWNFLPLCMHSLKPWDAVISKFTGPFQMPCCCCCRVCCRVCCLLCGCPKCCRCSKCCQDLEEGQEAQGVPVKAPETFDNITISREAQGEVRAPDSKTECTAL
Briefly: FACS, HEK293/Rhesus SLC34A2 cells. How it is done: Briefly, the Rhesus SLC34A2 expressing HEK293 engineering cells (HEK293/Rhesus_SLC34A2) were incubated with chimeric Abs (from 200 nM, 4 folds dilution, 8 points). After incubation at 4° C. for 60 minutes, the cells were washed with FACS buffer twice, then stained with fluorescent conjugated secondary antibody at 4° C. for 30 minutes. After that the cells were washed twice and analyzed by flow cytometry.

In assay [6] the target is T1, human SLC34A2. Briefly: FACS, HEK293/human SLC34A2 cells. In a few lines: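 HEK293 cells expressing human SLC34A2 incubated with PTM-derisked antibodies, 8-point 4-fold series from 200 nM, 60 min at 4 °C. Washed, stained with fluorescent secondary antibody 30 min at 4 °C, then analysed by flow cytometry.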
This is another data set of the same source.

Assay [7] concerns the target T1, human SLC34A2. Briefly: FACS, OVCAR3 cells. This is another data set of the same source.

B1: 30H9B8F9.p1.z5 hIgG1 (antibody, V domains shown)
VH: QVQLVQSGAEVKKPGASVKVSCKTSGYTFTTNNMHWVRQAPGQGLEWIGAIYPGSGATAYNQKFKGRVTMTADTSTSTVYMELSSLRSEDTAVYYCARGMYGHGAMDYWGQGTLVTVSS
VL: DIQLTQSPSFLSASVGDRVTITCKASQDVGTAVAWYQQKPGKAPKLLIYWATTRHSGVPSRFSGSGSGTEFTLTISSLQPEDFATYYCQQYSSNPLTFGQGTKLEIK
notes: humanized hIgG1
For the molecule B1, in the assay with human SLC34A2 [1], the ADCC-HEK293 stood at 1.4 nM, the ADCC-OVCAR3 was found to be 0.16 nM, the “Cytotoxic Effect - MDAH-2774” value was 0.21 nM and the “Cytotoxic Effect - OVCAR3” value turned out to be 0.02 nM. Besides, in the assay with human SLC34A2 [2], the EC50 is 1.28 nM. Moreover, in the assay with human SLC34A2 [3], the EC50 worked out at 1.43 nM and the “Top (MFI)” value worked out at 26900 MFI. Further, the EC50 with human SLC34A2 [4] stood at 2.4 nM.

B2: xi63A11D5B4 hIgG1 (antibody, V domains shown)
VH: QVQLQQPGAELVKPGASVKMSCRTSGYTFITYNMHWVKQTPGQGREWIGAIYPGNGDTSYNQKFKGKATLTADKSSSTAYMQLNSLTSEDSAVYYCSISTIITTGAVDYWGQGTSVTVAS
VL: DIVMTQSHKFMSTSVGDRVSITCKASQDVGTAVAWYQQKAGQSPKLLIYWTSTRHTGVPDRFTGSGSGTDFTLIIRSLQSEDLADYFCQQYSRIPLTFGSGTKLEIK
notes: chimeric, hIgG1
Consider B2, for which the EC50 with human SLC34A2 [5] came to 10.5 nM; with Rhesus SLC34A2, 2.56 nM; with human SLC34A2 [6], 2.13 nM. For the same molecule, the entries for the “Top (MFI)” value with human SLC34A2 [5], with Rhesus SLC34A2 and with human SLC34A2 [6] were 32100 MFI, 15100 MFI and 30400 MFI, respectively.

B3: xi91C9F1 hIgG1 (antibody, V domains shown)
VH: EVQLQQSGPELVKPGTSVKISCKTSGFFFTEYIIHWVKQSHGRSLEWIGGIIPNNGVTNYKQNFRGKAALTADKSSNTAYMELRSLTSEDSAVYYCARWRNGYYSAMDSWGQGTSVTVSS
VL: DIVVTQSHKFMSTSLGDRVSITCTASQDVGTAVAWYQQKPGHSPKLLIYWASTRHTGVPERFTGSGSGTDFTLTITNVQSEDLADYFCQQYRTSPLTFGVGTKLELK
notes: chimeric, hIgG1
As to B3, the EC50 in the assay with human SLC34A2 [7] turned out to be 1.77 nM; with Rhesus SLC34A2, 0.95 nM; with human SLC34A2 [6], 1.57 nM. Besides, the “Top (MFI)” value in the assay with human SLC34A2 [7] is 32100 MFI; with Rhesus SLC34A2, 12200 MFI; with human SLC34A2 [6] it was 28600 MFI.

B4: 91C9F1.p1.z7 hIgG1 (antibody, V domains shown)
VH: QVQLVQSGAEVKKPGSSVKVSCKTSGFFFTEYIIHWVRQAPGQGLEWIGGIIPNNDVTNYKQNFRGRVTLTADKSTSTAYMELSSLRSEDTAVYYCARWRNAYYSAMDSWGQGTTVTVSS
VL: DIQVTQSPSSLSTSVGDRVTITCTASQDVGTAVAWYQQKPGKSPKLLIYWASTRHTGVPERFTGSGSGTDFTLTISSVQPEDVATYFCQQYRTSPLTFGVGTKVEIK
notes: humanized hIgG1
Take B4: in the assay with human SLC34A2 [7], it took 1.67 nM to reach a half-maximal effect (EC50) and the “Top (MFI)” value worked out at 37400 MFI. Further, in the assay with human SLC34A2 [1], the ADCC-HEK293 stood at 0.75 nM, the ADCC-OVCAR3 amounted to 0.15 nM, the “Cytotoxic Effect - MDAH-2774” value was 0.39 nM and the “Cytotoxic Effect - OVCAR3” value was determined as 0.014 nM. The response with human SLC34A2 [2] was half-maximal at 2.06 nM (EC50). Further, it took 2.72 nM to reach a half-maximal effect in the assay with human SLC34A2 [4] (EC50).

B5: 62G10E4G8.p3.z15 hIgG1 (antibody, V domains shown)
VH: QVQLVQSGAEVVKPGASVKMSCKASGYTFPSYITHWVKQAPGQGLEWIGAIYPGNADTSYIQKFKGRATLTADKSTSTAYMELSSLRSEDTAVYYCARGTYGTSAWFTYWGQGTLVTVSS
VL: EIVLTQSPATLSVSPGERATLSCRARQNIGNNLYWYQQKPGQSPRLLIKYASQSISGIPSRFSGSGSGTDFTLTISSLQSEDFAVYFCQQSFSWPLTFGQGTKLEIK
notes: humanized hIgG1
Regarding B5, in the assay with human SLC34A2 [1], the ADCC-HEK293 was found to be 1.55 nM, the ADCC-OVCAR3 amounted to 0.56 nM, the “Cytotoxic Effect - MDAH-2774” value is 0.24 nM and the “Cytotoxic Effect - OVCAR3” value amounted to 0.025 nM. The molecule also came in with an EC50 in the assay with human SLC34A2 [2] of 2.82 nM. In the assay with human SLC34A2 [3], the midpoint of the response, the EC50, lay at 3.76 nM and the “Top (MFI)” value worked out at 27300 MFI. This molecule came in with an EC50 with human SLC34A2 [4] of 2.86 nM.

B6: xi62G10E4G8 hIgG1 (antibody, V domains shown)
VH: B5 VH with V5Q, A40T, A56G, R67K, T76S, E82Q, R87T, T91S, S120A
VL: DIVLTQSPATLSVTPGDSVSLSCRARQNIGNNLYWYQQKSHESPRLLIKYASQSISGIPSRFSGSGSGTDFTLTINSVETEDFGVYFCQQSFSWPLTFGAGTKLELK
notes: chimeric, hIgG1
Consider B6, for which the EC50 with Rhesus SLC34A2 amounted to 2.53 nM; in the assay with human SLC34A2 [3] it was 3.73 nM; with human SLC34A2 [6], 1.95 nM. In addition, the “Top (MFI)” value with Rhesus SLC34A2 was found to be 12000 MFI; with human SLC34A2 [3] it was 27600 MFI; with human SLC34A2 [6], 30300 MFI.

B7: XMT-1536 (antibody, INN chains, looked up, V domains shown)
VH: QVQLVQSGAEVVKPGASVKMSCKASGYTFTGYNIHWVKQAPGQGLEWIGAIYPGNGDTSYKQKFRGRATLTADTSTSTVYMELSSLRSEDSAVYYCARGETARATFAYWGQGTLVTVSS
VL: DIQMTQSPSSLSASVGDRVTITCSASQDIGNFLNWYQQKPGKTVKVLIYYTSSLYSGVPSRFSGSGSGTDYTLTISSLQPEDFATYYCQQYSKLPLTFGQGTKLELK
modifications: rilsodotin auristatin payload
For B7, the EC50 with human SLC34A2 [2] stood at 7.09 nM.

B8: xi30H9B8F9 hIgG1 (antibody, V domains shown)
VH: QVQLQQPGAELVKPGASVKMSCKTSGYTFTTNNMHWVKQTPGQGLEWIGAIYPGNGATAYNQKFKGKATLTADKSSSTAYMQLSSLTSEASAVYYCARGMYGHGAMDYWGQGTSVIVSS
VL: DIVMTQSHKFMSRSVGDRVRITCKASQDVGTAVAWYQQKPGQSPKLLIYWATTRHSGVPDRFTGSGSGTDFIFTISNVQSEDLADYFCQQYSSNPLTFGAGTKLELK
notes: chimeric, hIgG1
Turning to B8, the EC50 came to 1.26 nM with Rhesus SLC34A2, 1.19 nM in the assay with human SLC34A2 [3] and 1.14 nM with human SLC34A2 [6]. Moreover, the “Top (MFI)” value in the assay with Rhesus SLC34A2 was 17000 MFI; with human SLC34A2 [3], 29300 MFI; in the assay with human SLC34A2 [6] it was 32200 MFI.

B9: 63A11D5B4.p1.z9 hIgG1 (antibody, V domains shown)
VH: QVQLVQSGAEVVKPGASVKMSCKTSGYTFITYNMHWVRQAPGQGLEWIGAIYPGSGDTSYNQKFKGRVTLTADKSTSTAYMELSSLRSEDTAVYYCSISTIITTGAVDYWGQGTLVTVSS
VL: DIQMTQSPSSLSASVGDRVTITCKASQDVGTAVAWYQQKPGKVPKLLIYWTSTRHTGVPSRFSGSGSGTDFTLTISSLQPEDVATYYCQQYSRIPLTFGGGTKVEIK
notes: humanized hIgG1
For B9, in the assay with human SLC34A2 [1], the ADCC-HEK293 is 0.52 nM, the ADCC-OVCAR3 was 0.3 nM, the “Cytotoxic Effect - MDAH-2774” value amounted to 1.5 nM and the “Cytotoxic Effect - OVCAR3” value stood at 0.06 nM. Moreover, in the assay with human SLC34A2 [5], the EC50 was found to be 9.12 nM and the “Top (MFI)” value is 26500 MFI. The response with human SLC34A2 [2] was half-maximal at 15.1 nM (EC50). Also, a half-maximal response in the assay with human SLC34A2 [4] (EC50) required 5.87 nM.

As usually defined, the EC50 is the concentration giving half of the maximal effect. Higher therefore signals a less potent agent.
